Molecular target: T1, human LFL2-Fc fusion protein (human, UniProt P01857-1 99-330 = IgG part, limits assumed)
T1 construct: domain: constant region of the human gamma 1 immunoglobulin heavy chain; In-frame fusion of the LFL2 extracellular domain with the human gamma 1 constant region; GenBank NP-570843.1 is printed for LFL2/LRRC15
Assay: SPR (BIAcore 3000), mAb immobilised on CM5, LFL2-Fc analyte, bivalent analyte model
Experimental: Kinetics measurements between human LFL2-Fc fusion protein and anti-LFL2 mAbs were performed using BIAcore 3000™ (BIAcore™, Sweden). Anti-LFL2 mAbs were immobilized with 100 RUs on Research-grade CM5 sensor chip by the BIAcore amine coupling reagents (N-ethyl-N′-dimethylaminopropylcarbodiimide, EDC; N-hydroxysuccinimide, NHS; and ethanolamine HCl, pH8.5). Assays were run at a flow rate of 30 ul/min at room temperature. Three-minute association phase of each LFL2-Fc was followed by ten-minute injection of running buffer (10 mM Hepes, 300 mM sodium chloride, 3 mM EDTA, 0.05% P-20, pH7.4) to monitor dissociation. The mAb surface was regenerated with 25 mM NaOH. […] Double referencing was applied in each analysis to eliminate background responses from reference surface and buffer only control. The affinity (KD) of binding was obtained by simultaneously fitting the association and dissociation phases of the sensorgram from the analyte concentration series using the bivalent analyte model from BIAevaluate software.

T1 sequence (P01857 other isoform, or with tags, fused parts or gaps limits assumed): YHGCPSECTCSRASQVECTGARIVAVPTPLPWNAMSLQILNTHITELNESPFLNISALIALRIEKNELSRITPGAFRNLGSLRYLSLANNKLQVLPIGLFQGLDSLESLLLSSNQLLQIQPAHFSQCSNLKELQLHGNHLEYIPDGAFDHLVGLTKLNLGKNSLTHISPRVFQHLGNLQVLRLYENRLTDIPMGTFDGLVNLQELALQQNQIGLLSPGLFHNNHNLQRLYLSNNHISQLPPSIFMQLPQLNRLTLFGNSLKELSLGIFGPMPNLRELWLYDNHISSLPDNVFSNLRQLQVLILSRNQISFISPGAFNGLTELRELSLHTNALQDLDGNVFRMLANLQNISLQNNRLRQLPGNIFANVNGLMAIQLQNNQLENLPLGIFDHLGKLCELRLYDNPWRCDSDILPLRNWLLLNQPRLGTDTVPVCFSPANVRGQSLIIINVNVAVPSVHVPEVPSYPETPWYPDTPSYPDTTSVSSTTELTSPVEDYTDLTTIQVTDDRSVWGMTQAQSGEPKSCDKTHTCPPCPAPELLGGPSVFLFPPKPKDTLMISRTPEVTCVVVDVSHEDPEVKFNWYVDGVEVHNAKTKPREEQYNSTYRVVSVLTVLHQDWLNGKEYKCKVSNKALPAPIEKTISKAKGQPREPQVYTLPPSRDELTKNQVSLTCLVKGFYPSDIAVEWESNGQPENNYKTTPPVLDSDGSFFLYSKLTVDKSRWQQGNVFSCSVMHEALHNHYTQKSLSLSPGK

Kd: 1.2 nM
B1: anti-LFL2 mAb M25 (antibody, V domains shown)
VH: QVQLQQSGAELMKPGASVKISCKATGYKFSSYWIEWVKQRPGHGLEWIGEILPGSDTTNYNEKFKDKATFTSDTSSNTAYMQLSSLTSEDSAVYYCARDRGNYRAWFGYWGQGTLVTVS
VL: DIQMTQTSSLSASLGDRVTISCRASQDISNYLNWYQQKPDGTVKFLIYYTSRLHSGVPSRFSGSGSGTDYSLTISYLEPEDIATYFCQQGEALPWTFGGGTKLEIKR
